Experimental data: the RNAGym collection of RNA variant scans (doi:10.1073/pnas.2313332121)

B1: TPR t1 (parent)
chain: GACCAAUCUGCCCUCAGAGCUCGAGAACAUCUUCGGAUGCAGAGGAGGCAGGCUUCGGUGGCGCGAUAGCGCCAACGUCCUCAACCUCCAAUGCAUCCCACCACAUGAUGAUGCCUGAAGAGCCUUGGUUUUUUG

Variants of: B1
Assay: polymerase ribozyme fitness, log enrichment relative to wild type (log ratio); higher = more active; in vitro selection for triplet polymerase activity
In short: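 To select mutant libraries of each subunit of a heterodimeric triplet polymerase ribozyme, built by PCR and transcribed, each was annealed with a biotinylated primer, partner subunit and triplets, then incubated frozen at −7 °C. Extended constructs were gel-excised, captured on streptavidin beads and amplified by RT-PCR, in one round carried out in triplicate. Illumina sequencing of input and output libraries kept genotypes with ≥10 input reads and ≥1 read per output. Fitness is the base-2 logarithm of genotype enrichment relative to wild-type enrichment, from inverse-variance-weighted replicate averages.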

Row | Variant | polymerase ribozyme fitness (log ratio)
1 | A83C A91G A111G | -1.85
2 | C82G C102A U112A G120C U125G | -4.33
3 | A84G U92C U106G G113C | -4.32
4 | A83C U112G | -1.81
5 | A84U C114U U126G | -6.08
6 | C82U C88A A100U U112C | 0.47
7 | C86A U106A | 0.119
8 | C82G C98G U109A C123G | -7.59
9 | A83C C115A | 0.0144
10 | C86G A90C U96C U112A C124A | -1.78
11 | A83U U96A | -0.525
12 | C82A G110C A121U | -3.02
13 | C82A G110C | -3.97
14 | A84G G113U G135A | -4.51
15 | C86A A103U | -4.95
16 | C82A U126A | -2.16
17 | A83C C114U | -1.78
18 | C86G C97U C115G | -4.24
19 | C85U C86G A118C | -3.84
20 | A83U C85U C123G C124G | 1.28
21 | U81C C89A A111G | -2.87
22 | A83C A119G | -0.249
23 | C85A | -1.96
24 | C85G | -1.74

Row | Variant | polymerase ribozyme fitness (log ratio)
25 | C85U | -0.966
26 | A84U U112A G128U | -1.28
27 | A83G G120U G122U | -0.467
28 | C85A A111U | -4.18
29 | U81A U87C A121G | 1.6
30 | A83G G127C | -1.88
31 | U81C G128U | -2.54
32 | C86G C102A | -3.09
33 | C85A G117C | -5.07
34 | A83C G93A G117U | -2.52
35 | A84U U92G | -3.25
36 | C86U U116C | -0.139
37 | C82A C85A | -1.3
38 | U81G C82A A84C G120U | -1.07
39 | C85G G120A | -1.01
40 | A84U C94G | -1.24
41 | U81A A121U | 1.04
42 | A84G C88U C124U | 0.679
43 | C82U A83G C101U | -0.587
44 | C82A G113U C114U | -1.55
45 | C82G A119U | -0.606
46 | C82G A119G | 0.749
47 | C86A C104A G120C U130A | -1.56
48 | C85U C123U | -1.28

Row | Variant | polymerase ribozyme fitness (log ratio)
49 | U81C U87C A100U | -1.38
50 | C82U G128C | -2.07
51 | C82U G128A | -2.32
52 | C82A U112A | 1.06
53 | C85G G110A | -3.38
54 | A84U G113A U132C G135A | -1.31
55 | C86U | -0.178
56 | C86A | -0.461
57 | C86G | -0.82
58 | A84C C88G | -0.958
59 | C85U A121G | 1.61
60 | A83U A95G C104G A105C C115A G117U | -5.76
61 | A83G U116A | -3.6
62 | A83U C99A G117C U129G | -5.87
63 | C86U G117C | -3.53
64 | U81A U131G | -0.926
65 | C86A G93C | -2.88
66 | C82G G110C | -4.38
67 | C82G G107A | -6.96
68 | A83U A100U C123U U125G | 0.186
69 | C85U U106G | -2.74
70 | U81C C88U | 0.221
71 | C85G U112A | 0.357
72 | U87A | 0.0155

Row | Variant | polymerase ribozyme fitness (log ratio)
73 | U81A A91C C97A A105G C123G | -8.06
74 | C85A G128U | -4.02
75 | C82G G128A U133G | -2.64
76 | C82G C86U C102U U112G | -3.94
77 | C82U | -0.201
78 | C82G | -0.684
79 | C82A | -0.485
80 | C86A U129A | -2.31
81 | C85G G122A | -1.82
82 | A83G U92C C94A | -4.59
83 | C82A A105U | -2.27
84 | C82A A103U | -6.11
85 | C86A C124G G128A | 0.914
86 | C82A A84C G110C | -4.7
87 | C82A G93A A100C C123U U125A | -1
88 | C82G A83C | -0.655
89 | A83G C114A | -3.07
90 | A83U C98A C123A U125A | -4.08
91 | C82G U106A | -0.594
92 | U81A U109A | -5.72
93 | C82U G110A C115G | -5.29
94 | C82U C88U | -0.335
95 | A84C G93A C101U | -1.17
96 | C86A A100C | -1.66

Row | Variant | polymerase ribozyme fitness (log ratio)
97 | U81A C104U | -0.577
98 | C85U G113A G120U | -2.7
99 | C86U G120C | 1.51
100 | C86A A95C | -2.08
101 | A83U G120U | -1.06
102 | C85A C94U U112C | 0.116
103 | U81C U112A U125G | -0.145
104 | C86U U92C C115A C124A G127A | -1.31
105 | C86U G93A | -0.143
106 | C86A C104U | 0.0777
107 | C85G C115U | -1.86
108 | C82U C88A G120U G128A | -1.98
109 | C82A C102A C114U | -4.27
110 | C82U C85A C86U C97A C124G | -5.65
111 | C85G U96G A105U | -4.68
112 | C85A C89U U92G G117A | -4.94
113 | A84U C102U | -2
114 | A83U A108U | -5.5
115 | A84G G113U | -2.8
116 | C85U C86A C94G G117C | -6.16
117 | U81A C85U | -2.56
118 | C85A U87G G120U | -0.802
119 | C86G G113C | -2.62
120 | C86G G113U | -3.98

Row | Variant | polymerase ribozyme fitness (log ratio)
121 | A83C C94A | -0.753
122 | C82U A95C U106A | -0.318
123 | U81A A83U C115A | -1.27
124 | A84U A121C | 2.22
125 | C85A C101G | -3.91
126 | C86U C115G | -1.57
127 | A83U C88U C101A | -1.52
128 | A83C C94U G128A | -2.4
129 | C82U U96A | -1.57
130 | A83G G113U | -3.23
131 | C82U U96C C98U C115A G117C | -6.13
132 | C86A U92A C115A C123G | -2.27
133 | A83G C86G A91C C94U U130A | -3.59
134 | U81C C85A C89A | -4.24
135 | U81C G117A A119U | -3.73
136 | U81A A90G | -0.0144
137 | U81C C82G G113C C115G A118G | -7.41
138 | C82G C86A C94G | -3.45
139 | C85A C88U | -2.64
140 | C85G C89U | -0.78
141 | U81A A111U | -5.01
142 | A83C G107C | -2.05
143 | C80U U96C | -0.313
144 | C86U C98A | -4.48

Row | Variant | polymerase ribozyme fitness (log ratio)
145 | U81G U106G C124U | -5.53
146 | C86G C115U | -2.67
147 | C86G U92C | -2.6
148 | C82A C88A U96A | -1.57
149 | A84G G128C | -3.48
150 | A83U A91C | -0.743
151 | C82G C86A | -0.475
152 | A83G A105G C115U | -2.83
153 | A83C G117A | -1.33
154 | C85G C102U G113U G117A G120C | -5.52
155 | C85G C123U | -0.244
156 | U81C C88A A90U C104G G120U | -7.44
157 | U81G A84C U116A G120C | -3.83
158 | C86G C94U G110A U129A | -4.63
159 | U81G U87C | -2.82
160 | C82G A91C | -2.29
161 | C82U A111G | -0.268
162 | C82G A91C C115G | -2.49
163 | A84U C88G C115U U126A | -3.84
164 | C85U A111U G122U | -4.09
165 | C85G C88A C101U C124U | -0.871
166 | C85A C114G | -4.62
167 | C80U U81A C89U U126G | -3.21
